These results are taken from article PMC6794372.

Assay [1] concerns the target PRA, recombinant C-terminal domain of MYH9, His-SUMO tag removed. Put plainly: non-reducing SDS-PAGE and Western blot; PRA (5 mM) alone or pre-incubated with S100A4 (10 mM, 3 mM CaCl2) at 4°C for 1 h; without DTT; blot with anti-MYH9 pAb. In general terms: Immunoblotting shows a protein as a band on a membrane.
Assay [2] has the same target. Put plainly: negative-stain electron microscopy; purified PRA (5 mM) for 1 h at 4°C in 50 mM Tris, 150 mM NaCl, 10% glycerol, 3 mM CaCl2; supernatant after centrifugation, 1% uranyl acetate.

By stoichiometry N is commonly meant the number of molecules, sites or subunits per partner or assembly.

In the case of “PRA, recombinant C-terminal domain of MYH9, His-SUMO tag removed (domain or fragment)”, the stoichiometry N in assay [1] and in assay [2] was 2 throughout.
